The record followed here is patent US20250333506A1 (NEW YORK UNIVERSITY, published 2025).

Positions count from the first letter of the chain named. Read-outs that look alike come from different tables or passages of the source.

For experiment [1], the target named is T1, Cyno D2 (biotinylated (AviTag)).
T1 construct: also called cynomolgus Gamma/Delta2; Cyno D2/G
T1 delta chain: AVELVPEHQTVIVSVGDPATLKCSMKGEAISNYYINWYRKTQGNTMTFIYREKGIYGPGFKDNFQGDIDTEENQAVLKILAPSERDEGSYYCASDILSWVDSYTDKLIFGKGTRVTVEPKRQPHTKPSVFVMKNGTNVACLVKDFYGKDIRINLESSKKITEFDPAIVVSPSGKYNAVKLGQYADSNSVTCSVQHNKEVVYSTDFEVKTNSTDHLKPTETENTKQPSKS
T1 gamma chain: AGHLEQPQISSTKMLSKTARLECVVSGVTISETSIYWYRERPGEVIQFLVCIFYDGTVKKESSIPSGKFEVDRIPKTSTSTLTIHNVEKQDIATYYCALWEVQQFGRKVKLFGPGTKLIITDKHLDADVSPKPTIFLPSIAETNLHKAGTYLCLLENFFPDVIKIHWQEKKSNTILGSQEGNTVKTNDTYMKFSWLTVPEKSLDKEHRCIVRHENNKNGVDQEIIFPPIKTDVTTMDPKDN
The experiment is described as follows: bead binding assay: biotinylated TCR-Fc on streptavidin beads, IgG titrated, flow cytometry.

For another experiment, the target named is T2, Human D1A/G8 (biotinylated (AviTag)).
T2 construct: may be the same protein as m34; also called human Delta1A / Gamma8 TCR-Fc fusion protein
Described as above.

For experiment [2], the target named is T3, cynomolgus Gamma/Delta1A TCR-Fc fusion protein (cynomolgus monkey, biotinylated in vitro with recombinant BirA (AviTag)).
T3 construct: First chain = delta, second = gamma; also called Cyno D1; cyno D1; not shown: Fc portion of mouse IgG, then AviTag and His6 tag at the C-terminus; Fc portion of mouse IgG
The description is as above.

The target of experiment [3] is T3, cynomolgus Gamma/Delta1A TCR-Fc fusion …. The experiment is described as follows: bead binding assay (TCR-Fc on streptavidin beads, IgG titrated, flow cytometry); apparent KD, s.d. of triplicates.
Another experiment concerns the target T4, Human D1A/G3 (biotinylated (AviTag)).
T4 construct: also called human Delta1A / Gamma3 TCR-Fc fusion protein
The experiment is described as follows: bead binding assay: biotinylated TCR-Fc on streptavidin beads, IgG titrated, flow cytometry.

The target of experiment [4] is T1, Cyno D2. Described as above.
The target in experiment [5] is T3, cynomolgus Gamma/Delta1A TCR-Fc fusion …. The experiment in a line: bead binding assay (TCR-Fc on streptavidin beads, IgG titrated, flow cytometry); apparent KD.
Experiment [6] addresses T1, Cyno D2. The experiment in a line: bead binding assay: biotinylated TCR-Fc on streptavidin beads, IgG titrated, flow cytometry.
The target of experiment [7] is T1, Cyno D2. The experiment is described as above.
The target in experiment [8] is T1, Cyno D2. The experiment is described as above.
Experiment [9] addresses T5, cynomolgus monkey Delta1 Fc fusion protein (Delta1 clone not stated).
T5 construct: also called monkey (cyno) delta-1 chain; monkey Delta1 receptors
The experiment is described as follows: bead binding assay: Fc fusion proteins on streptavidin-coated beads, IgG titrated, flow cytometry.

For experiment [10], the target named is T6, human Delta1 TCR (Fc fusion protein, Delta1 clone and gamma chain not stated).
T6 construct: also called Human Delta1 Fc fusion protein; human delta-1 chain
The description is as above.

The target in experiment [11] is T6, human Delta1 TCR (Fc fusion protein, …). The experiment is described as follows: bead binding titration, flow cytometry (MFI against antibody concentration).
Experiment [12] addresses T1, Cyno D2. The experiment in a line: bead binding assay: biotinylated TCR-Fc on streptavidin beads, IgG titrated, flow cytometry.
The target of experiment [13] is T1, Cyno D2. The experiment is described as above.
For experiment [14], the target named is T3, cynomolgus Gamma/Delta1A TCR-Fc fusion …. The experiment is described as above. This is another data set of the same source.
The target is the same in experiment [15]. The experiment is described as above. This is another data set of the same source.
Experiment [16] shares this target. The description is as above. The source holds these as a separate data set.
The target is the same in experiment [17]. The experiment is described as above. The source holds these as a separate data set.
Experiment [18] shares this target. The experiment is described as above. The source holds these as a separate data set.
Experiment [19] has the same target. The description is as above. This is another data set of the same source.
The target of experiment [20] is T1, Cyno D2. The experiment is described as above.
The target in experiment [21] is T1, Cyno D2. The experiment is described as above.
In experiment [22] the target is T6, human Delta1 TCR (Fc fusion protein, …). The experiment is described as follows: SPR: biotinylated TCR on a neutravidin-loaded Avicap chip, IgG flowed (OneStep, Pioneer instrument).
The target of experiment [23] is T1, Cyno D2. The experiment in a line: bead binding assay: biotinylated TCR-Fc on streptavidin beads, IgG titrated, flow cytometry.

T2 sequence (delta chain, as listed by the source, chain 1 of 2): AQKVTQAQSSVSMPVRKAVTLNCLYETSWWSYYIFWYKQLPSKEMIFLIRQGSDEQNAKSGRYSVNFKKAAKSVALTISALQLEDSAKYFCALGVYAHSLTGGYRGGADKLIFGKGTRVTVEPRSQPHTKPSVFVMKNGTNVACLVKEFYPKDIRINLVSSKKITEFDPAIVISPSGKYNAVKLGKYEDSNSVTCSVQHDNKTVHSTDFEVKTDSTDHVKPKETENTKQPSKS
T2 sequence (gamma chain, as listed by the source, chain 2 of 2): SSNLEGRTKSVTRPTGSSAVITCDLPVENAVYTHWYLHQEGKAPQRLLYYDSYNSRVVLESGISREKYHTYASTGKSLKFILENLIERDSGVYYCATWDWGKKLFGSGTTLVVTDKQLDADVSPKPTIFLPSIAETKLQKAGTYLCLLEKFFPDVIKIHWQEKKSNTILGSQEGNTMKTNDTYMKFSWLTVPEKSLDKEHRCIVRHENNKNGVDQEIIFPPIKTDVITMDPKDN
T4 sequence (delta chain, as listed by the source, chain 1 of 2): as the sequence (delta chain, as listed by the source, chain 1 of 2) above
T4 sequence (gamma chain, as listed by the source, chain 2 of 2): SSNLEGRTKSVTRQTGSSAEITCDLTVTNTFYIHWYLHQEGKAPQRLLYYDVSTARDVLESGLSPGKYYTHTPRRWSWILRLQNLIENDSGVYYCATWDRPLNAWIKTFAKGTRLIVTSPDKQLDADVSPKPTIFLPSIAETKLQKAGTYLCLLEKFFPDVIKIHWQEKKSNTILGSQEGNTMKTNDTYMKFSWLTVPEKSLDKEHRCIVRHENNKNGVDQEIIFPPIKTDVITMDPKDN

B1: Delta1-23 (antibody, V domains shown)
VH: EVQLVESGGGLVQPGGSLRLSCAASGFTVSSSSIHWVRQAPGKGLEWVASIYSSSGYTYYADSVKGRFTISADTSKNTAYLQMNSLRAEDTAVYYCARDPGSYYWYYSGSAYEGYGLDYWGQGTLVTVSS
VL: DIQMTQSPSSLSASVGDRVTITCRASQSVSSAVAWYQQKPGKAPKLLIYAASSLQSGVPSRFSGSRSGTDFTLTISSLQPEDFATYYCQQQSKYPFLITFGQGTKVEIKR
notes: Tested in the human IgG format; also called anti-Delta1-23
As for B1, the binding result with Cyno D2 [1] is “no binding (tested: 100 nM)”; with Human D1A/G8, “binds”; with Human D1A/G3, “binds”. In addition, in experiment [2], the “EC50 (read off the curve)” value was around 5 nM. Besides, the Kd in [3] is 1.3 nM.

B2: Delta1-30 (antibody, V domains shown)
VH: B1 VH
VL: DIQMTQSPSSLSASVGDRVTITCRASQSVSSAVAWYQQKPGKAPKLLIYSASSLYSGVPSRFSGSRSGTDFTLTISSLQPEDFATYYCQQSGDDLITFGQGTKVEIKR
For B2, the binding result with Cyno D2 [4] is listed as “no binding (tested: 100 nM)”.

B3: Delta1-27 (antibody, V domains shown)
VH: B1 VH
VL: B1 VL with Q91S, K93R, Y94N, P95S, F96K
notes: Tested in the human IgG format
Take B3: the Kd in experiment [5] amounted to 0.78 nM. For the same molecule, the binding result in the experiment with Cyno D2 [6] was “no binding (tested: 100 nM)”.

B4: Delta1-20 (antibody, V domains shown)
VH: B1 VH
VL: B1 VL with Q91Y, S92C, K93R, Y94K, P95S, F96S, I98F
notes: as for B3
On to B4, for which the binding result with Cyno D2 [7] is reported as “no binding (tested: 100 nM)”. Moreover, the Kd in [5] was found to be 0.34 nM.

B5: Delta1-18 (antibody, V domains shown)
VH: B1 VH
VL: B1 VL with Q91R, K93R, Y94V, P95Y, F96S, I98V
notes: as for B3
Turning to B5, the binding result in the experiment with Cyno D2 [8] is on record as “no binding (tested: 100 nM)”. Also, the Kd in [5] amounted to 0.15 nM.

B6: Delta1-41 (antibody, V domains shown)
VH: B1 VH with V29F, S31A, S32N, S33D
VL: B1 VL
notes: Tested in the human IgG format; also called anti-Delta1-41
Consider B6, for which the “EC50 (read off the curve)” value in [9] was around 2 nM; in [10], 2 to 3 nM; in experiment [11], around 1 nM. The Kd in [5] was 2.7 nM.

B7: Delta1-28 (antibody, V domains shown)
VH: B1 VH
VL: B1 VL with Q91W, S92M, K93R, Y94S, P95S, F96S, I98F
notes: as for B3
With B7, the binding result in the experiment with Cyno D2 [12] was “no binding (tested: 100 nM)”. For the same molecule, the Kd in experiment [3] amounted to 0.36 nM.

B8: Delta1-29 (antibody, V domains shown)
VH: B1 VH
VL: B2 VL with S50A, Y55Q
notes: as for B3
Take B8: the binding result in the experiment with Cyno D2 [13] was “no binding (tested: 100 nM)”. In experiment [5], the Kd is 30.4 nM.

B9: Delta1-37 (antibody, V domains shown)
VH: B1 VH with V29F, S30T, S31G
VL: B1 VL
notes: also called anti-Delta1-37
Consider B9, for which, in experiment [14], the “EC50 (read off the curve)” value was around 2 nM.

B10: Delta1-40 (antibody, V domains shown)
VH: B1 VH with V29F, S30T
VL: B1 VL
notes: also called anti-Delta1-40
In the case of B10, the “EC50 (read off the curve)” value in [15] was around 2 nM.

B11: Delta1-38 (antibody, V domains shown)
VH: B1 VH with V29F, S30T, S33D
VL: B1 VL
notes: also called anti-Delta1-38
On to B11, for which, in [16], the “EC50 (read off the curve)” value was around 3 nM.

B12: Delta1-36 (antibody, V domains shown)
VH: B1 VH with V29F, S32N, S33D
VL: B1 VL
notes: also called anti-Delta1-36
B12: in [17], the “EC50 (read off the curve)” value is around 3 nM.

B13: Delta1-33 (antibody, V domains shown)
VH: B1 VH with V29F
VL: B1 VL
notes: also called anti-Delta1-33
For B13, in experiment [18], the “EC50 (read off the curve)” value is around 2 nM.

B14: Delta1-34 (antibody, V domains shown)
VH: B1 VH with V29F, S31G, S32T, S33D
VL: B1 VL
notes: also called anti-Delta1-34
B14: the “EC50 (read off the curve)” value in [19] was around 3 nM.

B15: Delta1-19 (antibody, V domains shown)
VH: B1 VH
VL: B1 VL with Q91M, S92D, K93R, Y94F, P95Y, F96S
notes: as for B3
On to B15, for which, in the experiment with Cyno D2 [20], the binding result is given as “binds”. Besides, in experiment [3], the Kd stood at 0.25 nM.

B16: Delta1-17 (antibody, V domains shown)
VH: B1 VH with S102M
VL: B2 VL
notes: also called anti-Delta1-17; Delta-17
Regarding B16, the binding result with Cyno D2 [21] is “no binding (tested: 100 nM)”. For the same molecule, the Kd was 4.6 nM in experiment [22] and 13.7 nM in [5]. Also, the “EC50 (read off the curve)” value in experiment [11] was around 0.5 nM.

B17: Delta1-21 (antibody, V domains shown)
VH: B1 VH
VL: B1 VL with S92Q, K93R, Y94T, P95S, F96Y
notes: as for B3
Turning to B17, in the experiment with Cyno D2 [23], the binding result is “no binding (tested: 100 nM)”. Also, the Kd in experiment [3] amounted to 1.74 nM.
